# Experimental data as given in the supplement of paper PMC7125110.
# ± gives the standard error. Fewer inactive variants are shown than the library holds.
# B1: glmS ribozyme (parent)
# chain: AUAAAAGCGCCAGAACUACAGAAAUGUAGUUGACGAGGAGGAGGUUUAUCGAAUUUUCGGCGGAUGCCUCCAAA
# Variants of: B1
# Test: self-cleavage kobs at 2500 uM GlcN6P; higher = faster cleavage; RNA array
# Conditions: with glucosamine-6-phosphate
# Outline: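 A hybridised Cy3 probe tracked barcoded ribozyme variants, transcribed in situ by E. coli RNA polymerase on sequenced MiSeq chips, at 37 °C. The variants received 40 μM to 10 mM glucosamine-6-phosphate in HEPES/KCl/Mg(OAc)2 buffer. kobs came from decay fits and kcat and KM from weighted Michaelis–Menten fits.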
row,Variant,self-cleavage kobs at 2500 uM GlcN6P [s⁻¹]
1,C11G G41A G62U C68U,< 1e-05
2,C8U A12C U30A,< 1e-05
3,A12C A15C A48G,< 1e-05
4,C11A U47G C61G,< 1e-05
5,C10U C16G C34G A39G,< 1e-05
6,G9A A14G A33C G38U U57A,< 1e-05
7,A12G A14U G41A G43A C50U G51A,< 1e-05
8,G9U G29U A53G,< 1e-05
9,C11U U31C G32A A64U,< 1e-05
10,G9U U45G G62C G66C,< 1e-05
11,C8U C34U G63C,< 1e-05
12,C11U U30C A39G A42G,0.000103 ± 3.7e-05
13,C10U G32A G37A A42U C50A U69G,< 1e-05
14,C8G G29U U31A,< 1e-05
15,C8U G9U U56A C70G,< 1e-05
16,C10U G13A A52U U69G,4.08e-05 ± 1.4e-05
17,G7U C8U A52G,< 1e-05
18,C11G G29A C70U,6.76e-05 ± 3.2e-05
19,C8G A14C C71G,< 1e-05
20,C10U U31G A42C,< 1e-05
21,C11U G35C U54A G60U C71A,< 1e-05
22,C10A C34A U65C G66C C71G,< 1e-05

row,Variant,self-cleavage kobs at 2500 uM GlcN6P [s⁻¹]
1,A12C U65G U69C,0.000703 ± 0.0002
2,G9C G41A C70U,< 1e-05
3,C8U C34G U69G,8.61e-05 ± 2.2e-05
4,A12G C16G G44U,< 1e-05
5,C11U G29A C71G,8.63e-05 ± 3e-05
6,C11U G13U U30C G44A,< 1e-05
7,G9U G35C A42U,< 1e-05
8,C8A G35C A53U G60A,< 1e-05
9,C8U G32A A33U G35C G37U A39U G51C G60C,< 1e-05
10,C11U U30G C68G,< 1e-05
11,C8U A42C U46A U55A,< 1e-05
12,C11G C67A,< 1e-05
13,G7C C50U C67A,< 1e-05
14,C11U G51U C70U,6.92e-05 ± 3.4e-05
15,G7U C10G A12C A42C G62U,< 1e-05
16,C8U A36G C50A G51A C68U C70A,0.000112 ± 4.4e-05
17,G9C A33C G38C A39C U65G,< 1e-05
18,C11A U49G,< 1e-05
19,C10G C16G G35A A53U A64C,< 1e-05
20,G7U C16U G29A G60U,< 1e-05
21,C10A G40A U55A,< 1e-05
22,C11U G40A C71U,0.000785 ± 0.00023
